The source of these data is article PMC9525683, “Structural analysis of human CEACAM1 oligomerization” (Communications Biology, 2022).

This series concerns the molecule itself. Briefly: crystal structure; tagless hCEACAM1 IgV at 15 mg/ml; sitting drop, 25 °C; 0.2 M ammonium sulfate, 0.1 M HEPES pH 7.5, 25% w/v PEG 3350; space group C121; 2.2 Å; three molecules in the asymmetric unit.

B1: human CEACAM1 IgV domain, wild type (tagless) (domain or fragment)
chain: QLTTESMPFNVAEGKEVLLLVHNLPQQLFGYSWYKGERVDGNRQIVGYAIGTQQATPGPANSGRETIYPNASLLIQNVTQNDTGFYTLQVIKSDLVNEEATGQFHVY
notes: carcinoembryonic antigen-related cell adhesion molecule 1 (CEACAM1), human, N-terminal IgV domain, non-glycosylated; The 15N-labelled form (M9 medium) was used for NMR, the unlabelled form for the crystals and UV spectroscopy; also called hCEACAM1 IgV; hCEACAM1 WT
Take B1: the binding result is given as “binds”.
